Experimental data as given in patent EP4711384A1 (WIO Bioscience Co., Ltd., dated 2026).
Where “and” joins values, the source holds several entries; their conditions need not be identical. Equal entries are not always repeated. Where two headings read alike, the source gives them in different places. One block for each molecule: values may come before it.

Key:
[1] = biological target: T1, human IL-18RAP ECD-His (human) (UniProt O95256); test: phage ELISA, 16-fold dilution
T1 sequence: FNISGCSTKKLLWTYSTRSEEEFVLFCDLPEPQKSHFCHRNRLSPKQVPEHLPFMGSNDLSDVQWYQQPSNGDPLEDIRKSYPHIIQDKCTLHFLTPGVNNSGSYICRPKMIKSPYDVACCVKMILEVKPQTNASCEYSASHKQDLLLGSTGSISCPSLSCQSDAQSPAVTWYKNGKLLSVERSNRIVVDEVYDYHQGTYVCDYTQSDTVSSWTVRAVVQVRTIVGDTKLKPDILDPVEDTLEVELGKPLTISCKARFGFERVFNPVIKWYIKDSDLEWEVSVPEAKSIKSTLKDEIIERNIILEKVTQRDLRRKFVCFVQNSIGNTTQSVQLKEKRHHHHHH

[2] = biological target: T2, human IL-18R1 ECD-His (human) (UniProt Q13478); test: phage ELISA, 16-fold dilution
T2 sequence: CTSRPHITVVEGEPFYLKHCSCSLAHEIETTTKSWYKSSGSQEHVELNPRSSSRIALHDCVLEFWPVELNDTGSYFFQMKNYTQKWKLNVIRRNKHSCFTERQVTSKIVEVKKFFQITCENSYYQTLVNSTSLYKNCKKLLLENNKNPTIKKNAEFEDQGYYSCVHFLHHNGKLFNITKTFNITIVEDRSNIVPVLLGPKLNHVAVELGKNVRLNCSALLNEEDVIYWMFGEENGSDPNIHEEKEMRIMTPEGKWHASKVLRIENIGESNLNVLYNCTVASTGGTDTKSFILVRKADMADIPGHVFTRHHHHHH

[3] = biological target: T1, human IL-18RAP ECD-His (human); test: phage ELISA, 4-fold dilution
[4] = biological target: T2, human IL-18R1 ECD-His (human); test: phage ELISA, 4-fold dilution
[5] = biological target: human IL-18R1 and IL-18RAP on IL-18 Reporter HEK 293 Cells (human) (UniProt Q13478); test: cell-based or functional assay
[6] = biological target: human IL-18R1 and IL-18RAP on IL-18 Reporter HEK 293 Cells (human) (UniProt Q13478); test: cell-based or functional assay; remark: listed apart in the source
[7] = biological target: T3, human IL-18R1 and IL-18RAP on IL-18 Reporter HEK 293 Cells (human, UniProt Q13478 19-541; O95256 20-599); test: cell-based or functional assay
T3 sequence (looked up) 1: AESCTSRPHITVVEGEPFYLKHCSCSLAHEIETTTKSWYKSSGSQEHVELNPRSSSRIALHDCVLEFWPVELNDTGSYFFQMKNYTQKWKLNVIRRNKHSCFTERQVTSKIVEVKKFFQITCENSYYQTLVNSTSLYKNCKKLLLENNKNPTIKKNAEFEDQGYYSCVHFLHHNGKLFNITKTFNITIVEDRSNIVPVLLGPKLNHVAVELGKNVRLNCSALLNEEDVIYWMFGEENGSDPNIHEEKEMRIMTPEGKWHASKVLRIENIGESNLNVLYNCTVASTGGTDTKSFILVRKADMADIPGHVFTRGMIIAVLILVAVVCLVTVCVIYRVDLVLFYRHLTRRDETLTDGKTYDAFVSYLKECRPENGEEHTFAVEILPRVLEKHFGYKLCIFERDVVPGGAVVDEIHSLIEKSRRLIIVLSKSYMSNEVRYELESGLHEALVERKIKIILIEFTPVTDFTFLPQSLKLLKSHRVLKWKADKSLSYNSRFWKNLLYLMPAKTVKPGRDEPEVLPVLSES
T3 sequence (looked up) 2: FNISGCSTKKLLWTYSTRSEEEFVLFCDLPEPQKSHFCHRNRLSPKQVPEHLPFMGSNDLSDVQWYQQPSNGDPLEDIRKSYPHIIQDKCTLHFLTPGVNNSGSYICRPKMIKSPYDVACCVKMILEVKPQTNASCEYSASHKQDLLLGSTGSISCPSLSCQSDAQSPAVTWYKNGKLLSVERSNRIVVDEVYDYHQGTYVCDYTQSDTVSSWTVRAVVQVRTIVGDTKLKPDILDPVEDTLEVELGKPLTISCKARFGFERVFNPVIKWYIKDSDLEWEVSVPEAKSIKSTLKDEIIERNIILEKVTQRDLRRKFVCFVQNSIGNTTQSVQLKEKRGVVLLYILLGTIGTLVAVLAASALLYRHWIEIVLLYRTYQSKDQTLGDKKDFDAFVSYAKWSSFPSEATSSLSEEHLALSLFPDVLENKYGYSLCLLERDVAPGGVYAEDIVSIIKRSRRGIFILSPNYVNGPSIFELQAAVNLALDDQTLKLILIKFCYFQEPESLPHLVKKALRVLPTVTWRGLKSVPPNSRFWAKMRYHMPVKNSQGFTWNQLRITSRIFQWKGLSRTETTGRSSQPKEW

[8] = biological target: T3, human IL-18R1 and IL-18RAP on IL-18 …; test: cell-based or functional assay; remark: listed apart in the source
[9] = biological target: T2, human IL-18R1 ECD-His (human); test: sandwich ELISA, IL-18RAP ECD-hFc detection

Molecule: recombinant human IL-18 (from UniProt Q14116 37-193) (ligand)
EC50 [5]: 0.121 ng/mL
Top630nm [5]: 2.27
EC50 [6]: 0.117 ng/mL
EC50, SEAP reporter [6]: 0.107 ng/mL
Top630nm [6]: 2.44

B2: Wio-02-01 (R1-A12-GGGGS-Rap-A10) (bispecific antibody)
chain: QVQLQESGGGPVQAGGSLRLSCSASTTAYDNACMGWFRQAPGKEREGVASIHLRDRTYYADSVKGRFTLSRDGASKTLYLQMNSLKPEDSGTYYCASSNICNGLNLQGNTYWGQGTQVTVSSGGGGSQVQLQESGGGLVQAGGSLKLSCAASGYTYGPYCMGWFRQFPGKEREGVAAVGGDGRTWYGNSVKGRFTISQDNAKKTLYLQINALKPEDTAMYYCAADFDRTVCSDDIYDYTYRGQGTQVTVSS
SEAP reporter OD, supernatant 5X [7]: 2.13
SEAP reporter OD, supernatant 25X [7]: 1.92
EC50 [8]: 1.87 ng/mL
ELISA OD [9]: 2.14 and 2.26

More lines, now with the values ahead:

ELISA OD [1]: 0.068
ELISA OD [2]: 0.055
ELISA OD [3]: 0.06
ELISA OD [4]: 0.059
Molecule: NC

ELISA OD [1]: 1.58
ELISA OD [3]: 1.85
B1: Rap-C10 (VHH)
VHH: QVQLQESGGGSVQPGGSLRLSCAASGFTYIPAYMGWFRQAPGKERERVASISSTDGSTTYADSVKGRFTVSQDTAKNTLYLQMNSLKPEDTAMYYCAAYQFGAFRVWGQGTQVTVSS

ELISA OD [1]: 1.58
ELISA OD [3]: 2
B3: Rap-F11 (VHH)
VHH: QVQLQESGGGSVQPGGSLRLSCAASGFTYIPAYMGWFRQAPGKERERVASIKTDGSTTYADSVNGRFTIAQDTAKNTLYLQMDSLKPEDTAMYYCAAYQFGAFRVWGQGTQVTVSS
